{"source": "the RNAGym collection of RNA variant scans (doi:10.7554/elife.90254)", "parents": {"B1": {"name": "LINE1-full (parent)", "chain": "UACGUAGGUGGUUUUCCCCUGAUAGUGCUAAGGGGGCCUGGAAGUUUGGACUGGGCAGAGCUCAACACAGCGUGGCAAAGUGGCUGUGGCUAGACUGCCUCUCUGGAUUCCUCGUCACUCAGCAGGGCAUCUCUGAGAGAAAUGCC"}}}
{"variants_of": "B1", "test": "self-cleavage, relative activity (ratio to wild type); higher = more cleavage; in vitro, sequencing; the parent is a self-cleaving ribozyme"}
{"variant": "A2G A31G", "self-cleavage": 1}
{"variant": "C3A A140U", "self-cleavage": 0.9}
{"variant": "U1C U81G", "self-cleavage": 1.01}
{"variant": "U1C U81C", "self-cleavage": 0.85}
{"variant": "U1C A107G", "self-cleavage": 0.75}
{"variant": "A2U U102C", "self-cleavage": 2.12}
{"variant": "U1A U102A", "self-cleavage": 0.48}
{"variant": "U1C G70A", "self-cleavage": 0.04}
{"variant": "C3A U13A", "self-cleavage": 0.79}
{"variant": "U1C C103U", "self-cleavage": 0.29}
{"variant": "G4A A24G", "self-cleavage": 0.75}
{"variant": "U1C G34A", "self-cleavage": 0.75}
{"variant": "U1C A121G", "self-cleavage": 0.79}
{"variant": "U1C A121U", "self-cleavage": 1.06}
{"variant": "C3U U20C", "self-cleavage": 0.44}
{"variant": "U1C C56U", "self-cleavage": 0.07}
{"variant": "A2C U14A", "self-cleavage": 1.16}
{"variant": "A2G A59U", "self-cleavage": 0.8}
{"variant": "A2U G122A", "self-cleavage": 0.79}
{"variant": "U1C U20A", "self-cleavage": 0.88}
{"variant": "U1A U104C", "self-cleavage": 1.51}
{"variant": "U1A U104A", "self-cleavage": 1.2}
{"variant": "A2G U100C", "self-cleavage": 0.62}
{"variant": "U1A U134C", "self-cleavage": 0.47}
{"variant": "G4A A124U", "self-cleavage": 0.53}
{"variant": "U1G C37G", "self-cleavage": 0.49}
{"variant": "C3A U45G", "self-cleavage": 0.45}
{"variant": "U1C U45A", "self-cleavage": 0.84}
{"variant": "U1C C37G", "self-cleavage": 0.73}
{"variant": "A2G G34C", "self-cleavage": 0.75}
{"variant": "A2G A129U", "self-cleavage": 0.62}
{"variant": "A2G G114A", "self-cleavage": 0.82}
{"variant": "C3G A30U", "self-cleavage": 0.91}
{"variant": "A2G U81A", "self-cleavage": 0.74}
{"variant": "U1C G86A", "self-cleavage": 0.06}
{"variant": "A2C A142G", "self-cleavage": 1.78}
{"variant": "G4A A94U", "self-cleavage": 0.27}
{"variant": "G4A A140C", "self-cleavage": 0.27}
{"variant": "G4A A140G", "self-cleavage": 0.76}
{"variant": "C3U U81C", "self-cleavage": 0.79}
{"variant": "U1C A30G", "self-cleavage": 0.73}
{"variant": "A2U C111A", "self-cleavage": 0.68}
{"variant": "A2U A50G", "self-cleavage": 0.53}
{"variant": "U1C U91C", "self-cleavage": 0.39}
{"variant": "A2U U100A", "self-cleavage": 0.66}
{"variant": "A2U U100C", "self-cleavage": 0.95}
{"variant": "A2G A142G", "self-cleavage": 0.93}
{"variant": "A2G A142U", "self-cleavage": 1.12}
{"variant": "A2G U134C", "self-cleavage": 1.35}
{"variant": "A2G U134G", "self-cleavage": 1.21}
{"variant": "A2U A129G", "self-cleavage": 0.72}
{"variant": "A2U A57C", "self-cleavage": 0.16}
{"variant": "A2U A57G", "self-cleavage": 0.6}
{"variant": "C3G A57U", "self-cleavage": 0}
{"variant": "U1G A30G", "self-cleavage": 0.61}
{"variant": "A2G U29A", "self-cleavage": 1.14}
{"variant": "A2G U29G", "self-cleavage": 1.09}
{"variant": "A2G U45C", "self-cleavage": 1.19}
{"variant": "U1G A42U", "self-cleavage": 0.28}
{"variant": "A2G U15C", "self-cleavage": 0.89}
{"variant": "A2G U15A", "self-cleavage": 1}
{"variant": "C3U U87G", "self-cleavage": 0.32}
{"variant": "C3U C51G", "self-cleavage": 1.31}
{"variant": "U1A U96G", "self-cleavage": 0}
{"variant": "A2G U108A", "self-cleavage": 1.02}
{"variant": "A2G U108C", "self-cleavage": 0.94}
{"variant": "A2U U29C", "self-cleavage": 0.98}
{"variant": "U1C A129G", "self-cleavage": 1.38}
{"variant": "A2G A50G", "self-cleavage": 0.39}
{"variant": "A2G A50U", "self-cleavage": 0.18}
{"variant": "U1A U130C", "self-cleavage": 1.46}
{"variant": "C3U A42G", "self-cleavage": 1.22}
{"variant": "A2G A136U", "self-cleavage": 0.77}
{"variant": "A2G A107G", "self-cleavage": 0.94}
{"variant": "A2U A107G", "self-cleavage": 1}
{"variant": "A2U A107U", "self-cleavage": 0.52}
{"variant": "A2G G75A", "self-cleavage": 0.7}
{"variant": "A2G U102G", "self-cleavage": 0}
{"variant": "C3A A78G", "self-cleavage": 0.64}
{"variant": "A2G U115A", "self-cleavage": 1.08}
{"variant": "A2C U73A", "self-cleavage": 1.29}
{"variant": "A2C U130C", "self-cleavage": 1.19}
{"variant": "U1C A24C", "self-cleavage": 0.91}
{"variant": "U1C A24G", "self-cleavage": 1.15}
{"variant": "U1C U109A", "self-cleavage": 2.04}
{"variant": "U1C U109C", "self-cleavage": 0.42}
{"variant": "A2C U102C", "self-cleavage": 1.65}
{"variant": "C3U A59G", "self-cleavage": 0.1}
{"variant": "A2U G127C", "self-cleavage": 1.16}
{"variant": "A2G A124G", "self-cleavage": 0.74}
{"variant": "A2G A124U", "self-cleavage": 0.88}
{"variant": "A2C A65G", "self-cleavage": 0.12}
{"variant": "U1C A124G", "self-cleavage": 0.75}
{"variant": "A2G A117G", "self-cleavage": 0.3}
{"variant": "C3U U115A", "self-cleavage": 0.72}
{"variant": "C3U U115C", "self-cleavage": 1.03}
{"variant": "A2G U73A", "self-cleavage": 0.95}
{"variant": "U1C G35A", "self-cleavage": 0.67}
{"variant": "U1C G35C", "self-cleavage": 1.26}
{"variant": "A2G U87C", "self-cleavage": 0.35}
{"variant": "A2G U12C", "self-cleavage": 0.96}
{"variant": "U1C A65U", "self-cleavage": 0.06}
{"variant": "U1C A65G", "self-cleavage": 0.07}
{"variant": "U1C U15C", "self-cleavage": 0.92}
{"variant": "A2G G74A", "self-cleavage": 0.69}
{"variant": "A2G U130A", "self-cleavage": 1.72}
{"variant": "C3U U143A", "self-cleavage": 0.41}
{"variant": "C3U U143G", "self-cleavage": 0}
{"variant": "A2G C37G", "self-cleavage": 0.87}
{"variant": "A2G U23C", "self-cleavage": 0.69}
{"variant": "U1C U112C", "self-cleavage": 2.17}
{"variant": "A2G U85C", "self-cleavage": 0.48}
{"variant": "C3A G122A", "self-cleavage": 1.51}
{"variant": "A2G U26C", "self-cleavage": 0.88}
{"variant": "A2G U26A", "self-cleavage": 0.84}
{"variant": "C3U A69U", "self-cleavage": 0.13}
{"variant": "C3U G7C", "self-cleavage": 0}
{"variant": "A2G A140C", "self-cleavage": 0.51}
{"variant": "A2U A77G", "self-cleavage": 1.77}
{"variant": "A2G U104C", "self-cleavage": 0.84}
{"variant": "A2U U143C", "self-cleavage": 1.28}
{"variant": "U1C U130A", "self-cleavage": 0.83}
{"variant": "A2U A42U", "self-cleavage": 0.47}
{"variant": "C3A U112C", "self-cleavage": 1.48}
{"variant": "U1C U26A", "self-cleavage": 0.53}
{"variant": "U1G A138G", "self-cleavage": 1.57}
{"variant": "A2G U112G", "self-cleavage": 0.77}
{"variant": "A2G U112A", "self-cleavage": 0.09}
{"variant": "A2G G89A", "self-cleavage": 0.11}
{"variant": "C3U U100A", "self-cleavage": 0.68}
{"variant": "A2U G97A", "self-cleavage": 0.08}
{"variant": "U1C G93A", "self-cleavage": 0.09}
{"variant": "A2U G11A", "self-cleavage": 0.92}
{"variant": "U1C U119A", "self-cleavage": 1.47}
{"variant": "G4A A107U", "self-cleavage": 0.2}
{"variant": "C3U A107U", "self-cleavage": 1.17}
{"variant": "A2G A121G", "self-cleavage": 1.44}
{"variant": "U1C U14A", "self-cleavage": 0.81}
{"variant": "U1C U14C", "self-cleavage": 0.93}
{"variant": "G4A A43G", "self-cleavage": 0.67}
{"variant": "U1C C99U", "self-cleavage": 0.24}
{"variant": "A2U A138U", "self-cleavage": 1.01}
{"variant": "C3A G70A", "self-cleavage": 0.08}
{"variant": "A2G G4U", "self-cleavage": 0.4}
{"variant": "A2G U20A", "self-cleavage": 0.37}
{"variant": "A2G U20C", "self-cleavage": 0.74}
{"variant": "A2U U47C", "self-cleavage": 0.43}
{"variant": "U1C A22G", "self-cleavage": 0.84}
{"variant": "U1C A22U", "self-cleavage": 0.54}
{"variant": "C3U A67C", "self-cleavage": 0.12}
{"variant": "C3U A67U", "self-cleavage": 0.15}
{"variant": "U1C G125A", "self-cleavage": 1.34}
{"variant": "C3U U46C", "self-cleavage": 0.92}
{"variant": "C3G U132A", "self-cleavage": 0.24}
{"variant": "C3U U96A", "self-cleavage": 0.07}
{"variant": "C3U U108C", "self-cleavage": 1.26}
{"variant": "C3U U52G", "self-cleavage": 1.17}
{"variant": "C3A G106A", "self-cleavage": 0.57}
{"variant": "C3U A65G", "self-cleavage": 0.17}
{"variant": "A2G A43G", "self-cleavage": 0.87}
{"variant": "A2C U5C", "self-cleavage": 1.12}
{"variant": "C3U G58U", "self-cleavage": 0}
{"variant": "A2G G144A", "self-cleavage": 0.86}
{"variant": "A2U U109C", "self-cleavage": 1.74}
{"variant": "C3U U119C", "self-cleavage": 1.14}
{"variant": "C3U C16U", "self-cleavage": 0.76}
{"variant": "A2G A6U", "self-cleavage": 0.53}
